In US20230130599A1 (BEIJING QL BIOPHARMACEUTICAL, published 2023):

Biological target: T1, human GFRAL (human, UniProt Q6UXV0 19-394)
T1 sequence (looked up): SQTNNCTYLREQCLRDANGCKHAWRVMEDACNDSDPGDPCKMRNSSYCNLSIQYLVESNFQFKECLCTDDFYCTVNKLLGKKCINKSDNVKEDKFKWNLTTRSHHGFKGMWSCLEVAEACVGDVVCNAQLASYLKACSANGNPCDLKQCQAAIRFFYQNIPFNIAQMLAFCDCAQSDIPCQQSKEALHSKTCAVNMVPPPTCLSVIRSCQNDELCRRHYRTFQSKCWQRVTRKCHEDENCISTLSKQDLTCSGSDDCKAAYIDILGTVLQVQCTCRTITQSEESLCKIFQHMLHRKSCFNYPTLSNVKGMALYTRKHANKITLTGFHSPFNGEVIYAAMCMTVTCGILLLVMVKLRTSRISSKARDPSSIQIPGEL
Assay: cell-based or functional assay

B1: Native GDF15 (SEQ ID NO: 9) (ligand)
chain: ARNGDHCPLGPGRCCRLHTVRASLEDLGWADWVLSPREVQVTMCIGACPSQFRAANMHAQIKTSLHRLKPDTVPAPCCVPASYNPMVLIQKTDTGVSLQTYDDLLAKDCHCI
1% HSA GDF15 activity (EC50, pM); SRE luciferase reporter: 8.2 pM | HSA free GDF15 activity (EC50, pM); SRE luciferase reporter: 10.3 pM
